Test results as given in patent publication US20250171542A1.

Biological target: Trop2 on MDA-MB-231 cell surface (UniProt P09758)
Assay: cell-based or functional assay

Sequence of Trop2 on MDA-MB-231 cell surface (P09758 27-323 limits assumed): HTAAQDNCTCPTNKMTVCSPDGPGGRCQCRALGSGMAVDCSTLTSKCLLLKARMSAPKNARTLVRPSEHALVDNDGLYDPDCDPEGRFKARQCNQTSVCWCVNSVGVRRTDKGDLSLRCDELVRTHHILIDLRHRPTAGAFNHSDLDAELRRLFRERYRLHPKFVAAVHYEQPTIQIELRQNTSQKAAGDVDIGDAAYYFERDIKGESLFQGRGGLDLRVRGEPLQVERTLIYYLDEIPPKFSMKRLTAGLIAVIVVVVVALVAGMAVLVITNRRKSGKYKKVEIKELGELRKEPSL

B1: Trodelvy (Sacituzumab govitecan-hziy, Immunomedics) (antibody, INN chains, looked up, V domains shown)
VH: QVQLQQSGSELKKPGASVKVSCKASGYTFTNYGMNWVKQAPGQGLKWMGWINTYTGEPTYTDDFKGRFAFSLDTSVSTAYLQISSLKADDTAVYFCARGGFGSSYWYFDVWGQGSLVTVSS
VL: DIQLTQSPSSLSASVGDRVSITCKASQDVSIAVAWYQQKPGKAPKLLIYSASYRYTGVPDRFSGSGSGTDFTLTISSLQPEDFAVYYCQQHYITPLTFGAGTKVEIKR
modifications: govitecan (SN-38) payload
With B1 the Internalization (%), FACS, 0.25 µg/ml, 2 h was 35.7%, the Internalization (%), FACS, 0.25 µg/ml, 4 h was 45.1% and the Internalization (%), FACS, 0.5 µg/ml, 2 h was 38%. The Internalization (%), FACS, 0.5 µg/ml, 4 h was 45.6%, the Internalization (%), FACS, 1 µg/ml, 2 h was 36.5% and the Internalization (%), FACS, 1 µg/ml, 4 h was 44.5%. It also gave an Internalization (%), FACS, 2 µg/ml, 2 h of 36.2% and an Internalization (%), FACS, 2 µg/ml, 4 h of 46.1%.
